Biological target: T1, CK2α-AT, autotransporter fusion protein with the human protein kinase CK2 α-subunit as passenger domain (human, UniProt P68400 2-391)
T1 sequence (looked up): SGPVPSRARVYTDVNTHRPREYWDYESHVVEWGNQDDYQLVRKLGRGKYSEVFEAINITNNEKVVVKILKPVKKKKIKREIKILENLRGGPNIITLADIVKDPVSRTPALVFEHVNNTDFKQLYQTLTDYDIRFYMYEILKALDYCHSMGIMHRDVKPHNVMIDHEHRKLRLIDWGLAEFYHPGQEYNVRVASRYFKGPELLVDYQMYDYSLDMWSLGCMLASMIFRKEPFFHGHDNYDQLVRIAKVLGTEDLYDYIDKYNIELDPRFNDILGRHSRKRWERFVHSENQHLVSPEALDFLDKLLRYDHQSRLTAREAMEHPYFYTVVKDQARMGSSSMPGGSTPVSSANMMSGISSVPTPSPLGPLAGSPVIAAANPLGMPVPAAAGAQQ
Assay: cell-based or functional assay

B1: CK2β-AT, autotransporter fusion protein with the human protein kinase CK2 β-subunit as passenger domain (natural protein)
chain: not shown
radiometric whole-cell kinase activity normalised to the expression level of CK2α-AT, cells co-displaying both subunits against cells displaying CK2α alone: > 5 fold

— publication PMC4451881, “Functional display of heterotetrameric human protein kinase CK2 on Escherichia coli: a novel tool for drug discovery” (Microbial Cell Factories, 2015)
